T1: NHERF3_4, Q5T2W1
T1 sequence (Q5T2W1 373-468, limits assumed, looked up): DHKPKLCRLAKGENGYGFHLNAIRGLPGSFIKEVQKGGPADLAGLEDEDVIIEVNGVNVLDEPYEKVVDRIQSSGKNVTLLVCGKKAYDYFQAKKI

T2: SNTG2, Q9NY99
T2 sequence (Q9NY99 68-166, limits assumed, looked up): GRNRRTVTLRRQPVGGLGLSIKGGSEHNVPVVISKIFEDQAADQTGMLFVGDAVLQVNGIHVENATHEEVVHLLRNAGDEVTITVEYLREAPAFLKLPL

T3: PARD3B_1, Q8TEW8
T3 sequence (Q8TEW8 196-299, limits assumed, looked up): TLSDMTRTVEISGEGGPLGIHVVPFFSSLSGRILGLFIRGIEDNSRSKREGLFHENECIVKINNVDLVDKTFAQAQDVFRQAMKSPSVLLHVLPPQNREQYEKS

T4: DLG3_1, Q92796
T4 sequence (Q92796 125-227, limits assumed, looked up): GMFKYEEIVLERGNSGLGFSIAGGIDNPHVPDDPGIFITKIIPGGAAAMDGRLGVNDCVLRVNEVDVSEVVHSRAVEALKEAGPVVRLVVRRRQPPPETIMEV

T5: APBA2_1, Q99767
T5 sequence (Q99767 563-664, limits assumed, looked up): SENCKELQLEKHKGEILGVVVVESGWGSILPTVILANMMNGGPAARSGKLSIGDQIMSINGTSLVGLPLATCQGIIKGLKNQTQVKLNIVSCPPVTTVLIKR

T6: DLG3_2, Q92796
T6 sequence (Q92796 221-321, limits assumed, looked up): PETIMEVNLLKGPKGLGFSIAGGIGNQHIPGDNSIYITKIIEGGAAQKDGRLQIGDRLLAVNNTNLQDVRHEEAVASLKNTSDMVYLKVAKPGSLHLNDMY

T7: SHANK1, Q9Y566
T7 sequence (Q9Y566 658-767, limits assumed, looked up): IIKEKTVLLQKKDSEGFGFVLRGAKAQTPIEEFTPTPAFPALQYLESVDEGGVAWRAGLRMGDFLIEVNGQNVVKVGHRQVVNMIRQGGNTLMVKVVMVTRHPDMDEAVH

T8: RHPN1, Q8TCX5
T8 sequence (Q8TCX5 508-602, limits assumed, looked up): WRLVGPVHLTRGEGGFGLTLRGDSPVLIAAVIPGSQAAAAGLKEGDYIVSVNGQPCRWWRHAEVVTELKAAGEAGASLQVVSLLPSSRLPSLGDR

T9: DVL3, Q92997
T9 sequence (Q92997 244-331, limits assumed, looked up): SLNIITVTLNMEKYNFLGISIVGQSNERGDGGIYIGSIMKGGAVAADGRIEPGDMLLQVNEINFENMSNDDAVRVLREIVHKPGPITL

T10: MPDZ_12, O75970
T10 sequence (O75970 1857-1958, limits assumed, looked up): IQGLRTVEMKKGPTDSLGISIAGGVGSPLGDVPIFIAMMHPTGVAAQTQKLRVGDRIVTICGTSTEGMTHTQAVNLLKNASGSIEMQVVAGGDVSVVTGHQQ


What follows are binders tested against MAST1, Q9Y2H9 (assay: holdup assay). Details: plain residues with an end cap or a label only (N-terminal biotin on a linker: ado-ado).
Chain of MAST1, Q9Y2H9 (Q9Y2H9 962-1065): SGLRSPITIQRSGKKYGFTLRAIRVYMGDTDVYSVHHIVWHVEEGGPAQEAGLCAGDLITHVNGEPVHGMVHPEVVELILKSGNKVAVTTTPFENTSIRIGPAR
Set-up: key: below the threshold = too weak to quantify, mostly under pKd 3.1 to 4

Binder | pKd
FTLPAESSEI [PLEKHG7, Q6ZR37] | 4.53
HLRQQGSVEV [EPHB6, O15197] | below the threshold

The binders below were run against T1, NHERF3_4, Q5T2W1 (assay: holdup assay). Details: plain residues with an end cap or a label only (N-terminal biotin on a linker: ado-ado).
Set-up: key: below the threshold = too weak to quantify, mostly under pKd 3.1 to 4

Binder | pKd
FTLPAESSEI [PLEKHG7, Q6ZR37] | below the threshold
HLRQQGSVEV [EPHB6, O15197] | below the threshold

Each binder was assayed against T2, SNTG2, Q9NY99 (assay: holdup assay). Details: plain residues with an end cap or a label only (N-terminal biotin on a linker: ado-ado).
Set-up: key: below the threshold = too weak to quantify, mostly under pKd 3.1 to 4

Binder | pKd
FTLPAESSEI [PLEKHG7, Q6ZR37] | below the threshold
HLRQQGSVEV [EPHB6, O15197] | below the threshold

These binders were tested against GRIP2_4, Q9C0E4 (assay: holdup assay). Details: plain residues with an end cap or a label only (N-terminal biotin on a linker: ado-ado).
Chain of GRIP2_4, Q9C0E4 (Q9C0E4 446-548): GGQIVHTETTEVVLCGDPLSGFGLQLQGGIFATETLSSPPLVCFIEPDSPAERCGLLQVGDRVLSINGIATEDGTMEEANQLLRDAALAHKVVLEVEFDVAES
Set-up: key: below the threshold = too weak to quantify, mostly under pKd 3.1 to 4

Binder | pKd
FTLPAESSEI [PLEKHG7, Q6ZR37] | below the threshold
HLRQQGSVEV [EPHB6, O15197] | below the threshold

The binders below were run against MAST2, Q6P0Q8 (assay: holdup assay). Details: plain residues with an end cap or a label only (N-terminal biotin on a linker: ado-ado).
Chain of MAST2, Q6P0Q8 (Q6P0Q8 1099-1202): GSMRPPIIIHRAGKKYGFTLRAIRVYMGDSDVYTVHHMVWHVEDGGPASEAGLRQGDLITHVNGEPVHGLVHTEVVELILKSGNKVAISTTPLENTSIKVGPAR
Set-up: key: below the threshold = too weak to quantify, mostly under pKd 3.1 to 4

Binder | pKd
FTLPAESSEI [PLEKHG7, Q6ZR37] | 5.6
HLRQQGSVEV [EPHB6, O15197] | 4.01

What follows are binders tested against T3, PARD3B_1, Q8TEW8 (assay: holdup assay). Details: plain residues with an end cap or a label only (N-terminal biotin on a linker: ado-ado).
Set-up: key: below the threshold = too weak to quantify, mostly under pKd 3.1 to 4

Binder | pKd
FTLPAESSEI [PLEKHG7, Q6ZR37] | below the threshold
HLRQQGSVEV [EPHB6, O15197] | 3.69

The binders below were run against FRMPD2_1, Q68DX3 (assay: holdup assay). Details: plain residues with an end cap or a label only (N-terminal biotin on a linker: ado-ado).
Chain of FRMPD2_1, Q68DX3 (Q68DX3 770-861): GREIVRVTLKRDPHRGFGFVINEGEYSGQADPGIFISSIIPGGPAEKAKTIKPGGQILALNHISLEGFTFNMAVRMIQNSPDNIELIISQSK
Set-up: key: below the threshold = too weak to quantify, mostly under pKd 3.1 to 4

Binder | pKd
FTLPAESSEI [PLEKHG7, Q6ZR37] | below the threshold
HLRQQGSVEV [EPHB6, O15197] | 4.14

What follows are binders tested against GORASP2, Q9H8Y8 (assay: holdup assay). Details: plain residues with an end cap or a label only (N-terminal biotin on a linker: ado-ado).
Set-up: key: below the threshold = too weak to quantify, mostly under pKd 3.1 to 4

Binder | pKd
FTLPAESSEI [PLEKHG7, Q6ZR37] | below the threshold
HLRQQGSVEV [EPHB6, O15197] | below the threshold

These binders were tested against Inadl_8, Q8NI35 (assay: holdup assay). Details: plain residues with an end cap or a label only (N-terminal biotin on a linker: ado-ado).
Chain of Inadl_8, Q8NI35 (Q8NI35 1425-1530): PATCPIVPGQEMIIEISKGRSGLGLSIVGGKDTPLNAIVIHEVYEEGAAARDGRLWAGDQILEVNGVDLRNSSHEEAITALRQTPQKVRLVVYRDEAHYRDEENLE
Set-up: key: below the threshold = too weak to quantify, mostly under pKd 3.1 to 4

Binder | pKd
FTLPAESSEI [PLEKHG7, Q6ZR37] | below the threshold
HLRQQGSVEV [EPHB6, O15197] | below the threshold

The binders below were run against LNX1_2, Q8TBB1 (assay: holdup assay). Details: plain residues with an end cap or a label only (N-terminal biotin on a linker: ado-ado).
Chain of LNX1_2, Q8TBB1 (Q8TBB1 371-470): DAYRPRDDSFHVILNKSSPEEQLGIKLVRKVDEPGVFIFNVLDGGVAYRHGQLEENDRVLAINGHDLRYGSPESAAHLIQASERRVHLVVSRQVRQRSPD
Set-up: key: below the threshold = too weak to quantify, mostly under pKd 3.1 to 4

Binder | pKd
FTLPAESSEI [PLEKHG7, Q6ZR37] | below the threshold
HLRQQGSVEV [EPHB6, O15197] | 4.1

The binders below were run against GRID2IP_2, A4D2P6 (assay: holdup assay). Details: plain residues with an end cap or a label only (N-terminal biotin on a linker: ado-ado).
Chain of GRID2IP_2, A4D2P6 (A4D2P6 272-370): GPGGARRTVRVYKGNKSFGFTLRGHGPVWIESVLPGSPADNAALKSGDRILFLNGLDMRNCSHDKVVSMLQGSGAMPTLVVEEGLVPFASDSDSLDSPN
Set-up: key: below the threshold = too weak to quantify, mostly under pKd 3.1 to 4

Binder | pKd
FTLPAESSEI [PLEKHG7, Q6ZR37] | 4.2
HLRQQGSVEV [EPHB6, O15197] | below the threshold

The binders below were run against T4, DLG3_1, Q92796 (assay: holdup assay). Details: plain residues with an end cap or a label only (N-terminal biotin on a linker: ado-ado).
Set-up: key: below the threshold = too weak to quantify, mostly under pKd 3.1 to 4

Binder | pKd
FTLPAESSEI [PLEKHG7, Q6ZR37] | below the threshold
HLRQQGSVEV [EPHB6, O15197] | below the threshold

Each binder was assayed against T5, APBA2_1, Q99767 (assay: holdup assay). Details: plain residues with an end cap or a label only (N-terminal biotin on a linker: ado-ado).
Set-up: key: below the threshold = too weak to quantify, mostly under pKd 3.1 to 4

Binder | pKd
FTLPAESSEI [PLEKHG7, Q6ZR37] | below the threshold
HLRQQGSVEV [EPHB6, O15197] | below the threshold

The binders below were run against Inadl_6, Q8NI35 (assay: holdup assay). Details: plain residues with an end cap or a label only (N-terminal biotin on a linker: ado-ado).
Chain of Inadl_6, Q8NI35 (Q8NI35 1058-1167): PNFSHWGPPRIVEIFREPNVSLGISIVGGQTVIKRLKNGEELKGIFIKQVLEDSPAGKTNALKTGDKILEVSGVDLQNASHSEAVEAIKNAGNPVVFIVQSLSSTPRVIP
Set-up: key: below the threshold = too weak to quantify, mostly under pKd 3.1 to 4

Binder | pKd
FTLPAESSEI [PLEKHG7, Q6ZR37] | below the threshold
HLRQQGSVEV [EPHB6, O15197] | below the threshold

What follows are binders tested against LIMK2, P53671 (assay: holdup assay). Details: plain residues with an end cap or a label only (N-terminal biotin on a linker: ado-ado).
Chain of LIMK2, P53671 (P53671 143-248): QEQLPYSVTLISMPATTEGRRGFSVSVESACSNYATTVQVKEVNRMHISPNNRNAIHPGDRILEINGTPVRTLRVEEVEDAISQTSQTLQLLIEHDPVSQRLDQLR
Set-up: key: below the threshold = too weak to quantify, mostly under pKd 3.1 to 4

Binder | pKd
FTLPAESSEI [PLEKHG7, Q6ZR37] | below the threshold
HLRQQGSVEV [EPHB6, O15197] | below the threshold

The binders below were run against IL16_3, Q14005 (assay: holdup assay). Details: plain residues with an end cap or a label only (N-terminal biotin on a linker: ado-ado).
Chain of IL16_3, Q14005 (Q14005 1107-1207): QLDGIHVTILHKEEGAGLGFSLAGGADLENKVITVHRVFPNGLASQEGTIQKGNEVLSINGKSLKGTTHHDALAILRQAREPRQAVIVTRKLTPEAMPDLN
Set-up: key: below the threshold = too weak to quantify, mostly under pKd 3.1 to 4

Binder | pKd
FTLPAESSEI [PLEKHG7, Q6ZR37] | below the threshold
HLRQQGSVEV [EPHB6, O15197] | below the threshold

These binders were tested against T6, DLG3_2, Q92796 (assay: holdup assay). Details: plain residues with an end cap or a label only (N-terminal biotin on a linker: ado-ado).
Set-up: key: below the threshold = too weak to quantify, mostly under pKd 3.1 to 4

Binder | pKd
FTLPAESSEI [PLEKHG7, Q6ZR37] | 4.19
HLRQQGSVEV [EPHB6, O15197] | below the threshold

These binders were tested against PARD3_3, Q8TEW0 (assay: holdup assay). Details: plain residues with an end cap or a label only (N-terminal biotin on a linker: ado-ado).
Chain of PARD3_3, Q8TEW0 (Q8TEW0 582-685): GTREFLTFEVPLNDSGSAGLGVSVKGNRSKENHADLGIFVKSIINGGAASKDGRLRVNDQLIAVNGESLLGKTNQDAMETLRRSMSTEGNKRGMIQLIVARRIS
Set-up: key: below the threshold = too weak to quantify, mostly under pKd 3.1 to 4

Binder | pKd
FTLPAESSEI [PLEKHG7, Q6ZR37] | below the threshold
HLRQQGSVEV [EPHB6, O15197] | below the threshold

Each binder was assayed against SCRIB_2, Q14160 (assay: holdup assay). Details: plain residues with an end cap or a label only (N-terminal biotin on a linker: ado-ado).
Chain of SCRIB_2, Q14160 (Q14160 857-960): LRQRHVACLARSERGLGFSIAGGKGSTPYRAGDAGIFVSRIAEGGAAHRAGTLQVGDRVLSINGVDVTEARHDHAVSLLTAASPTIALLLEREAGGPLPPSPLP
Set-up: key: below the threshold = too weak to quantify, mostly under pKd 3.1 to 4

Binder | pKd
FTLPAESSEI [PLEKHG7, Q6ZR37] | below the threshold
HLRQQGSVEV [EPHB6, O15197] | below the threshold

These binders were tested against LNX1_1, Q8TBB1 (assay: holdup assay). Details: plain residues with an end cap or a label only (N-terminal biotin on a linker: ado-ado).
Chain of LNX1_1, Q8TBB1 (Q8TBB1 261-371): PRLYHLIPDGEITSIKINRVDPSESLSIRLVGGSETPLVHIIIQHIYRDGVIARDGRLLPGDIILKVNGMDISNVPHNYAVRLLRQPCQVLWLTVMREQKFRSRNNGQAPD
Set-up: key: below the threshold = too weak to quantify, mostly under pKd 3.1 to 4

Binder | pKd
FTLPAESSEI [PLEKHG7, Q6ZR37] | below the threshold
HLRQQGSVEV [EPHB6, O15197] | below the threshold

Each binder was assayed against SCRIB_1, Q14160 (assay: holdup assay). Details: plain residues with an end cap or a label only (N-terminal biotin on a linker: ado-ado).
Chain of SCRIB_1, Q14160 (Q14160 718-814): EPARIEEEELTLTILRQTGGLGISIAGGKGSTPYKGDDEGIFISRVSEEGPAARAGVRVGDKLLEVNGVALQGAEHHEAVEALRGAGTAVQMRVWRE
Set-up: key: below the threshold = too weak to quantify, mostly under pKd 3.1 to 4

Binder | pKd
FTLPAESSEI [PLEKHG7, Q6ZR37] | below the threshold
HLRQQGSVEV [EPHB6, O15197] | below the threshold

Each binder was assayed against T7, SHANK1, Q9Y566 (assay: holdup assay). Details: plain residues with an end cap or a label only (N-terminal biotin on a linker: ado-ado).
Set-up: key: below the threshold = too weak to quantify, mostly under pKd 3.1 to 4

Binder | pKd
FTLPAESSEI [PLEKHG7, Q6ZR37] | 4.17
HLRQQGSVEV [EPHB6, O15197] | below the threshold

These binders were tested against T8, RHPN1, Q8TCX5 (assay: holdup assay). Details: plain residues with an end cap or a label only (N-terminal biotin on a linker: ado-ado).
Set-up: key: below the threshold = too weak to quantify, mostly under pKd 3.1 to 4

Binder | pKd
FTLPAESSEI [PLEKHG7, Q6ZR37] | 4.68
HLRQQGSVEV [EPHB6, O15197] | below the threshold

The binders below were run against T9, DVL3, Q92997 (assay: holdup assay). Details: plain residues with an end cap or a label only (N-terminal biotin on a linker: ado-ado).
Set-up: key: below the threshold = too weak to quantify, mostly under pKd 3.1 to 4

Binder | pKd
FTLPAESSEI [PLEKHG7, Q6ZR37] | below the threshold
HLRQQGSVEV [EPHB6, O15197] | below the threshold

These binders were tested against TJP1_2, Q07157 (assay: holdup assay). Details: plain residues with an end cap or a label only (N-terminal biotin on a linker: ado-ado).
Chain of TJP1_2, Q07157 (Q07157 181-274): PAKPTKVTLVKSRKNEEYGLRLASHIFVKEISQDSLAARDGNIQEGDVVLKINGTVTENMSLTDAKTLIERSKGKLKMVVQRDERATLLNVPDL
Set-up: key: below the threshold = too weak to quantify, mostly under pKd 3.1 to 4

Binder | pKd
FTLPAESSEI [PLEKHG7, Q6ZR37] | below the threshold
HLRQQGSVEV [EPHB6, O15197] | below the threshold

Each binder was assayed against T10, MPDZ_12, O75970 (assay: holdup assay). Details: plain residues with an end cap or a label only (N-terminal biotin on a linker: ado-ado).
Set-up: key: below the threshold = too weak to quantify, mostly under pKd 3.1 to 4

Binder | pKd
FTLPAESSEI [PLEKHG7, Q6ZR37] | below the threshold
HLRQQGSVEV [EPHB6, O15197] | below the threshold

Each binder was assayed against GOPC, Q9HD26 (assay: holdup assay). Details: plain residues with an end cap or a label only (N-terminal biotin on a linker: ado-ado).
Set-up: key: below the threshold = too weak to quantify, mostly under pKd 3.1 to 4

Binder | pKd
FTLPAESSEI [PLEKHG7, Q6ZR37] | below the threshold
HLRQQGSVEV [EPHB6, O15197] | below the threshold
